The results in this text go back to article PMC12245071.

Assay [1] concerns the target Soc-SpyCatcher displayed on the T4 phage capsid (T4-SpyCatcher phage) (bacteriophage T4). As to the kind of experiment: co-sedimentation; sequential co-display on T4-SpyCatcher phage: HA-stem trimers added first, incubated, then S-ecto trimers at 1:1; 4 °C, PBS pH 7.4; SDS-PAGE quantification.
Assay [2] has the same target. The experiment in a line: co-sedimentation; sequential co-display on T4-SpyCatcher phage: S-ecto trimers added first at a 0.25:1 ratio, incubated, then HA-stem trimers added at a 1:1 ratio; 4 °C, PBS pH 7.4; SDS-PAGE quantification.
Assay [3] shares this target. The experiment in a line: co-sedimentation; T4-SpyCatcher phage incubated with SpyTagged S-ecto or HA-stem trimers alone at increasing ratios of trimer to Soc binding sites, 4 °C, 1-2 h, PBS pH 7.4; sedimented at 34 000 g, pellets washed twice, SDS-PAGE and band quantification; covalent SpyCatcher-SpyTag conjugation.

Take “Prefusion-stabilized SARS-CoV-2 spike ectodomain trimer with C-terminal SpyTag (from UniProt P0DTC2 14-1208) (domain or fragment)”: the copies per capsid (copies per capsid) was found to be 35 in assay [1], 56 in assay [2] and 118 in assay [3].
